Blank lines part the entries; values can stand above or below the molecule they belong to. Where no end group is shown, it is not given here.
Experiments:
MMP-13 [1] = biological target: T1, MMP-13 (Homo sapiens, UniProt P45452); experiment: Fluorogenic assay: cleavage of quenched fluorogenic human CD28 stalk region peptide by MMP-13; type: biochemical; conditions: increasing dose of inhibitor; FIG. 1E
Procedure: (§1) FIGS. 1A-1E. (1A-1E) Line graphs of fluorescence from quenched fluorogenic peptides of the human CD28 stalk region incubated with (1A) various recombinant human sheddases, (1B) varying concentrations of rhMMP-2, (1C) MMP-2 and various concentrations of the MMP-2 specific inhibitor ARP-100, (1D) varying concentrations of rhMMP-13, or (1E) MMP-13 and broad MMP inhibitor TMI-1.
(§2) Matrix Metalloproteinases and ADAM's—Commercial recombinant human metalloproteinases MMP-1 (Cat. No. AS-55575), MMP-9 (Cat. No. AS-55576), MMP-10 (Cat. No. AS-72067), MMP-12 (Cat. No. AS-55525) and MMP-13 (Cat. No. AS-72257) are from AnaSpec. […]
(§3) Fluorogenic Assay—The assay was performed with indicated MMP's (10 or 30 ng) in 50 mM Tris, 10 mM CaCl2), 150 mM NaCl, 0.05% Brij-35, pH 7.5 or ADAM10/ADAM17 (5 μg/mL) in 25 mM Tris, 2.5 mM ZnCl2 and 0.005% Brij-35, pH 9. Cleavage of the fluorogenic substrate (10 μM) was measured at Ex340/Em490 nm using Biotek Synergy H1 spectrofluorometer.
(§4) It has been hypothesized that ADAM-10 and ADAM-17 may play a role in this shedding. […] When intact, the fluorochrome on the peptide is quenched and no fluorescence is measured. Cleavage of the peptide allows the fluorochrome to dissociate from the quencher and fluorescence is measurable by a dedicated reader. […] The peptide alone without any sheddase added was used as a control to normalize the readings. […]

MMP-2 [2] = biological target: T2, MMP-2 (Homo sapiens, UniProt P08253); experiment: In-vitro cleavage assay of c-Myc tagged, biotinylated dimeric CD28 stalk region peptide by rhMMP-2 (ELISA detection of intact peptide); type: biochemical; conditions: 25 ng and 50 ng MMP-2, 5-hour incubation; FIG. 4C
T2 construct: purchased AnaSpec and R&D Systems AS-72005 / 902-MP
T2 sequence (P08253 110-660): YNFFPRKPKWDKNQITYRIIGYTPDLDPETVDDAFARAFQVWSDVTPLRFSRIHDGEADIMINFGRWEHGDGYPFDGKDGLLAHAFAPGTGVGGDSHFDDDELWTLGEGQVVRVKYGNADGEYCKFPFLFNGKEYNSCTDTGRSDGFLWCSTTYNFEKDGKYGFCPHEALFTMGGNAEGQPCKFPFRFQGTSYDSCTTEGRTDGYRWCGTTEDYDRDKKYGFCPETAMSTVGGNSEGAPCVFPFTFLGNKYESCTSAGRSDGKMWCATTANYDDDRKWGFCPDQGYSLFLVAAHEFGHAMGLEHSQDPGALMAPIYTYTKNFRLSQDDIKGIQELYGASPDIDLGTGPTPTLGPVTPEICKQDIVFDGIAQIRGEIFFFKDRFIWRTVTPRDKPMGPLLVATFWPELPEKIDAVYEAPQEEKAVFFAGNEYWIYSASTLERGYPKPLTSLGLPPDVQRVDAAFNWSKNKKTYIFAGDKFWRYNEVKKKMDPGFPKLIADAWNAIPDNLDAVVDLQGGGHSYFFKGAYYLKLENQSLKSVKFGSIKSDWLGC

MMP-13 [3] = biological target: T1, MMP-13; experiment: In-vitro cleavage assay of c-Myc tagged, biotinylated dimeric CD28 stalk region peptide by rhMMP-13 (ELISA detection of intact peptide); type: biochemical; conditions: 25 ng and 50 ng MMP-13, 5-hour incubation; FIG. 4D
[4] = tested on: chronically stimulated human PBMCs; conditions: previously shown in WO2019/175885; dose dependent; cited from earlier work
MMP-2 [5] = biological target: T2, MMP-2; experiment: Fluorogenic assay: cleavage of quenched fluorogenic human CD28 stalk region peptide by MMP-2; type: biochemical; conditions: increasing dose of inhibitor; FIG. 1C
Procedure: as §1, §2, §3, §4

human CD28 stalk region = biological target: T3, human CD28 stalk region (Homo sapiens, UniProt P10747); experiment: Binding to human CD28 stalk region dimeric peptide by ELISA; conditions: for binding to human CD28 stalk region sequence: ELISA, serial dilution of VHH clones, FIG. 5; for specific binding to MMP cleavage site of human CD28: WT versus L145K stalk region dimeric peptides, VHH 0.2-5 μg/mL, FIG. 7
T3 construct: human CD28 stalk region (His134-Pro152)

Molecule: CC#CCOc1ccc(S(=O)(=O)N2CCSC(C)(C)[C@@H]2C(=O)NO)cc1 [TMI-1]
cleavage of the CD28 stalk fluorogenic peptide by MMP-13 (MMP-13 [1]): cleavage decreased in a dose dependent manner

peptide cleaved by MMP-2 (MMP-2 [2]): < 5%
peptide cleaved by MMP-13 (MMP-13 [3]): < 5%
Molecule: mutated peptide: cMyc tagged, biotinylated dimeric CD28 stalk region peptide with L145K, EQKLISEEDLGGGGHVKGKHLCPSPKFPGPSKP (SEQ ID NO: 19) (EQKLISEEDLGGGGHVKGKHLCPSPKFPGPSKP-biotin; also: dimeric peptide) [reference compound]

Molecule: TAPI
levels of sCD28 produced by chronically stimulated human PBMCs [4]: diminish levels of sCD28

Molecule: CC(C)ON(CC(=O)NO)S(=O)(=O)c1ccc(-c2ccccc2)cc1 [ARP-100]
cleavage of the CD28 stalk fluorogenic peptide by MMP-2 (MMP-2 [5]): cleavage decreased in a dose dependent manner

B1: clone 4A1: llama-derived VHH single domain antibody binding the human CD28 stalk region, SEQ ID NO: 31, C-terminal His-tag (protein)
VHH: QVQLVESGGGLVQAGGSLRLSCAASGSIFSINAMGWYRQAPGKQRERVAAITSGGSTNYADSVKGRFTISRDNAKNTVYLQMNNLEPRDAGVYYCVVDLYGEDYWIWGQGTQVTVSSAAAHHHHHH
modifications: C-terminal His-tag
binding to human CD28 stalk region sequence (human CD28 stalk region): specifically bind the stalk region of human CD28
specific binding to MMP cleavage site of human CD28 (human CD28 stalk region): bind specifically to MMP cleavage site of human CD28

B2: clone 4A4: llama-derived VHH single domain antibody binding the human CD28 stalk region, SEQ ID NO: 30, C-terminal His-tag (protein)
VHH: EVQLVESGGGLVQAGGSLRLSCAASGSLFSINAMAWYRQAPGKQRELVAAITSSGSTNYANSVKGRFTVSRDNAKNTMYLQMNSLKPEDTAVYYCVVDEYGSDYWIWGQGTQVTVSSAAAHHHHHH
modifications: C-terminal His-tag
binding to human CD28 stalk region sequence (human CD28 stalk region): specifically bind the stalk region of human CD28
specific binding to MMP cleavage site of human CD28 (human CD28 stalk region): bind specifically to MMP cleavage site of human CD28
